# Test results from patent publication US20250109203A1.
# Columns and labels:
# [1] = target: human γδ TCR (Vγ9Vδ2) on human Vδ2+ γδ T cells (human) (UniProt A0JD36); assay: flow cytometry on zoledronate-expanded human γδ T cells gated Vδ2+, anti-VHH Alexa647, MdFI
# [2] = target: cynomolgus monkey γδ TCR on cynomolgus Vγ9+ γδ T cells (cynomolgus monkey); assay: flow cytometry on expanded cynomolgus γδ T cells gated Vγ9+, anti-human Fcγ A647, MdFI
# [3] = target: human γδ TCR (Vγ9Vδ2) on human Vδ2+ γδ T cells (human) (UniProt A0JD36); assay: flow cytometry on expanded human Vδ2+ γδ T cells, nonlinear fit; from data in FIG. 6J
# [4] = target: human γδ TCR (Vγ9Vδ2) on human Vδ2+ γδ T cells (human) (UniProt A0JD36); assay: flow cytometry on expanded human Vδ2+ γδ T cells, nonlinear fit; from data in FIG. 6K
# [5] = target: human γδ TCR (Vγ9Vδ2) on human Vδ2+ γδ T cells (human) (UniProt A0JD36); assay: flow cytometry, monomeric VHH-hIgG1 Fc fusion on expanded human Vδ2+ γδ T cells, anti-human Fc A647, MFI
# [6] = target: human γδ TCR (Vγ9Vδ2) on human Vδ2+ γδ T cells (human) (UniProt A0JD36); assay: as above; remark: listed apart in the source
# [7] = target: human γδ TCR (Vγ9Vδ2) on human Vδ2+ γδ T cells (human) (UniProt A0JD36); assay: flow cytometry on expanded human Vδ2+ γδ T cells, nonlinear fit
Binder,EC50 (read off the curve) [5],Kd [7],other results
"1D7v158×HSA×IL-2_X (h1D7v158 VHH - anti-HSA VHH - IL-2_X) (protein, part only; not given: anti-albumin VHH and linkers, part only) chain, part: EVQLLESGGGEVQPGGSLRLSCVASRGKISQYRMGWYRQAPGKQRELVAHISNTGDAAEYVAPVKGRFTISRDNAKNALYLQMNSLRAEDTAVYKCNTVEDILAWGQGTLVTVEPAPASSSTKKTQLQLEALLLDLQMILNGINNYKNPKLTRMLTFKFYMPKKATELKHLQCLERELKRLEEVLNLAQSKNFHLRPRYLISNINVIVLELKGSETTFMCEYADETATIVEFLNRWITFSQSIISTLT",,,EC50 (read off the curve) [1]: 4 nM
"1D7×HSA×IL-2_X (anti-γδTCR-1D7 VHH - anti-HSA VHH - IL-2_X) (protein, part only; not given: anti-albumin VHH and linkers, part only) chain, part: QVQLVQSGGGLVQPGGSLRLSCVASRGKISQYRMGWYRQAPGKQRELVAHISNTGDAAEYVDSVKGRFTISRDSTKNAVYLQMNSLKPEDTAVYKCNSVEDILAWGQGTQVTVKPAPASSSTKKTQLQLEALLLDLQMILNGINNYKNPKLTRMLTFKFYMPKKATELKHLQCLERELKRLEEVLNLAQSKNFHLRPRYLISNINVIVLELKGSETTFMCEYADETATIVEFLNRWITFSQSIISTLT",,,EC50 (read off the curve) [1]: 5 nM
bivalent 1D7 VHH-human IgG1 Fc xELL fusion (VHH) VHH: QVQLVQSGGGLVQPGGSLRLSCVASRGKISQYRMGWYRQAPGKQRELVAHISNTGDAAEYVDSVKGRFTISRDSTKNAVYLQMNSLKPEDTAVYKCNSVEDILAWGQGTQVTVKP,,,EC50 (read off the curve) [2]: 0.3 nM
hu1D7v158 VHH-hIgG1 Fc-NNT (monomeric) (VHH) VHH: EVQLLESGGGEVQPGGSLRLSCVASRGKISQYRMGWYRQAPGKQRELVAHISNTGDAAEYVAPVKGRFTISRDNAKNALYLQMNSLRAEDTAVYKCNTVEDILAWGQGTLVTVEP,6 nM,,Kd [3]: 6.54 nM; Kd [4]: 2.96 nM; EC50 (read off the curve) [6]: 3 nM
hu1D7v86 VHH-hIgG1 Fc-NNT (monomeric) (VHH) VHH: EVQLLESGGGEVQPGGSLRLSCVASRGKISQYRMGWYRQAPGKERELVAHISNTGDAAEYVGGVKDRFTISRDSTKNALYLQMSSLRAEDTAVYKCNSVEDILAWGQGTLVTVRP,60 nM,126 nM,
hu1D7v85 VHH-hIgG1 Fc-NNT (monomeric) (VHH) VHH: EVQLLESGGGEVQPGGSLRLSCVASRGKISQYRMGWYRQAPGKERELVAHISNTGDAAEYVSGVKDRFTISRDSTKNALYLQMSSLRAEDTAVYKCNSVEDILAWGQGTLVTVRP,70 nM,168 nM,
hu1D7v99 VHH-hIgG1 Fc-NNT (monomeric) (VHH) VHH: EVQLLESGGGEVQPGGSLRLSCVASRGKISQYRMGWYRQAPGKERELVAHISNTGDAAEYVSSVKDRFTISRDSTKNALYLQMSSLRAEDTAVYKCNSVEDILAWGQGTLVTVRP,60 nM,116 nM,
